Values belong to the molecule of their own block, whether it stands above or below them.
Assays:
[1] = target: human ornithine decarboxylase N125K/M140K double mutant (human) (UniProt P11926)
[2] = target: human ornithine decarboxylase F133C mutant (human) (UniProt P11926)
[3] = target: human ornithine decarboxylase N125K mutant (human) (UniProt P11926)
[4] = target: human ornithine decarboxylase M140K mutant (human) (UniProt P11926)
[5] = target: human ornithine decarboxylase, wild type (human) (UniProt P11926)
[6] = target: human ornithine decarboxylase N125K/M140K double mutant (human) (UniProt P11926); remark: listed apart in the source
[7] = target: human ornithine decarboxylase N126V mutant (human) (UniProt P11926)
[8] = target: human ornithine decarboxylase S135N mutant (human) (UniProt P11926)
[9] = target: human ornithine decarboxylase N125K mutant (human) (UniProt P11926); experiment: AUC; sedimentation velocity, 42,000 rpm; ODC or AZI fixed at 0.3 mg/mL with AZ at 0.015, 0.03, 0.06 or 0.09 mg/mL; data globally fitted with SEDPHAT to the A+B<->AB hetero-association model
[10] = target: human ornithine decarboxylase M140K mutant (human) (UniProt P11926); experiment: as above
[11] = target: human ornithine decarboxylase, wild type (human) (UniProt P11926); experiment: as above
[12] = target: human antizyme inhibitor, wild type (human) (UniProt O14977); experiment: as above
human antizyme inhibitor, wild type (human), sequence (O14977 whole entry): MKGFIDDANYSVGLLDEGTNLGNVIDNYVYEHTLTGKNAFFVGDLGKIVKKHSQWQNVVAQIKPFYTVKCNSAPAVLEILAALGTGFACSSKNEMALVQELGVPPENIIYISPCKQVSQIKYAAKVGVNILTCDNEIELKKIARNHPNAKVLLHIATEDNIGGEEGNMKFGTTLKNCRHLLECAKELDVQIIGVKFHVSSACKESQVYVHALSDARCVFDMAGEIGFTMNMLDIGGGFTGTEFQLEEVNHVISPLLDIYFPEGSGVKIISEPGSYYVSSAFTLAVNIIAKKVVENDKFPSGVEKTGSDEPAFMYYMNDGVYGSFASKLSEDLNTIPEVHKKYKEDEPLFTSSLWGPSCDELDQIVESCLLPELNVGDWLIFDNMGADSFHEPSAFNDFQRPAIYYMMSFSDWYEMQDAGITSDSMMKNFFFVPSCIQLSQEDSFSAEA

[13] = target: human ornithine decarboxylase N125K/M140K double mutant (human) (UniProt P11926); experiment: as above
[14] = target: human antizyme inhibitor K125N/K140M double mutant (human) (UniProt O14977); experiment: as above
human antizyme inhibitor K125N/K140M double mutant (human), sequence (O14977 whole entry K125N/K140M): as the sequence (O14977 whole entry) above, with K125N, K140M counted along it

[15] = target: human antizyme inhibitor K140M mutant (human) (UniProt O14977); experiment: as above
human antizyme inhibitor K140M mutant (human), sequence (O14977 whole entry K140M): as the sequence (O14977 whole entry) above, with K140M counted along it

[16] = target: human antizyme inhibitor K125N mutant (human) (UniProt O14977); experiment: as above
human antizyme inhibitor K125N mutant (human), sequence (O14977 whole entry K125N): as the sequence (O14977 whole entry) above, with K125N counted along it

human antizyme (human) = human antizyme (human) (UniProt P54368)
[17] = target: the molecule itself; experiment: AUC; sedimentation velocity, 42,000 rpm; continuous size distribution (SEDFIT) of ODC or AZI without AZ

- residual enzyme activity of AZ-inhibited ODC N125K/M140K on rescue by high concentrations of AZI (AZ:ODC monomer ratio 4.0) [1]: 20%
- IC50,AZ: concentration of AZ required for 50% inhibition of ODC enzyme activity (ODC 20 µg/mL) [2]: 450 nM
- IC50,AZ: concentration of AZ required for 50% inhibition of ODC enzyme activity (ODC 20 µg/mL) [3]: 100 nM
- IC50,AZ: concentration of AZ required for 50% inhibition of ODC enzyme activity (ODC 20 µg/mL) [4]: 130 nM
- IC50,AZ: concentration of AZ required for 50% inhibition of ODC enzyme activity (ODC 20 µg/mL) [5]: 250 nM
- IC50,AZ: concentration of AZ required for 50% inhibition of ODC enzyme activity (ODC 20 µg/mL) [6]: 80 nM
- IC50,AZ: concentration of AZ required for 50% inhibition of ODC enzyme activity (ODC 20 µg/mL) [7]: 440 nM
- IC50,AZ: concentration of AZ required for 50% inhibition of ODC enzyme activity (ODC 20 µg/mL) [8]: 490 nM
- Kd [9]: 100 nM
- Kd [10]: 140 nM
- Kd [11]: 210 nM
- Kd [12]: 20 nM
- Kd [13]: 20 nM
- Kd [14]: 180 nM
- Kd [15]: 110 nM
- Kd [16]: 160 nM
Molecule: human antizyme (from UniProt P54368 1-228) (natural protein)

- residual enzyme activity of AZ-inhibited ODC WT (AZ:ODC monomer ratio 4.0) with increasing AZI concentrations (human antizyme (human)): > 90%
Molecule: human antizyme inhibitor, wild type (from UniProt O14977 1-448) (natural protein)

B1: human ornithine decarboxylase, wild type (enzyme, UniProt P11926 1-461, looked up)
chain: MNNFGNEEFDCHFLDEGFTAKDILDQKINEVSSSDDKDAFYVADLGDILKKHLRWLKALPRVTPFYAVKCNDSKAIVKTLAATGTGFDCASKTEIQLVQSLGVPPERIIYANPCKQVSQIKYAANNGVQMMTFDSEVELMKVARAHPKAKLVLRIATDDSKAVCRLSVKFGATLRTSRLLLERAKELNIDVVGVSFHVGSGCTDPETFVQAISDARCVFDMGAEVGFSMYLLDIGGGFPGSEDVKLKFEEITGVINPALDKYFPSDSGVRIIAEPGRYYVASAFTLAVNIIAKKIVLKEQTGSDDEDESSEQTFMYYVNDGVYGSFNCILYDHAHVKPLLQKRPKPDEKYYSSSIWGPTCDGLDRIVERCDLPEMHVGDWMLFENMGAYTVAAASTFNGFQRPTIYYVMSGPAWQLMQQFQNPDFPPEVEEQDASTLPVSCAWESGMKRHRAACASASINV
notes: Ornithine decarboxylase (EC 4.1.1.17), human; Homodimer without AZ (S about 6); dissociates to form a heterodimer with AZ; Gene sub-cloned into pQE30; also called ODC; source: E. coli JM109, purified (Ni-NTA Sepharose)
- stoichiometry N [17]: 2

Source: PMC3084279, “Critical Factors Governing the Difference in Antizyme-Binding Affinities between Human Ornithine Decarboxylase and Antizyme Inhibitor” (PLoS ONE, 2011)
